For the assay, the target named is T1, D2-KIR3DL2-IgG1-Fc (human, UniProt P43630 220-316, limits assumed).
T1 construct: domain: D2; also called D2 domain of KIR3DL2 as IgG1-Fc protein
Briefly: flow cytometry on HEK-293 cells expressing FLAG-KIR3DX1rep, anti-IgG-Fc detection (Fig. 4C). On the technique in general: In flow cytometry, cells or beads pass a laser one at a time.

T1 sequence (P43630 other isoform, or with tags, fused parts or gaps limits assumed): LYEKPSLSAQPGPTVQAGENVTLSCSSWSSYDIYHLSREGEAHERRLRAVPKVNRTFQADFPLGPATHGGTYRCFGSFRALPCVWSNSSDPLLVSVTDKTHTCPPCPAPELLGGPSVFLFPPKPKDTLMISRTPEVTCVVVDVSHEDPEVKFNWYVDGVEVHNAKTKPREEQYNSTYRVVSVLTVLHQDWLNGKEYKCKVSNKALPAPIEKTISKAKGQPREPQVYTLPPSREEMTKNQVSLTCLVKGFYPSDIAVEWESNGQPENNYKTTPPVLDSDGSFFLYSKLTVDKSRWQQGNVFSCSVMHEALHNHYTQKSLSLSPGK

B1: FLAG-KIR3DX1rep (receptor)
chain: QKICPHAGAQDKFSLSAWPSPVVPLGGRVTLSCHSHLRFVIWTIFQTTGTRSHELHTGLSNNITISPVTPEHAGTYRCVGIYKHASKWSAESNSLKIIVTGLFTKPSISAHPSSLVHAGARVSLRCHSELAFDEFILYKEGHIQHSQQLDQGMEAGIHYVEAVFSMGPVTPAHAGAYRCCGCFSHSRYEWSAPSDPLDIVITGKYKKPSLSTQVDPMMRLGEKLTLFCSSEISFDQYHLFRHGVAHGQWLSGGQRHREAFQANFSVGRATPVPGGTYRCYGSFNDSPYEWSAPSDPLQLYTTGNTKSTPLSFTESTPESDTPRPQGQSSNLHMLTGLSVAIISIGVCLSAFIGFWCYIKYHTTMANTEPTEGQRTDEEEPAAEETQEIIYAQLNHQALSQTGFPPASQCPHYLSEDPSIYITVHQAQAEARAAPSLWHKGHPR
notes: also called FLAG-tagged full-length KIR3DX1-repaired; full-length KIR3DX1 in its repaired form as cell surface receptor
Consider B1, for which the binding result was “no binding”.

The record behind these values is patent EP4509523A1 (Deutsches Primatenzentrum GmbH (DPZ), dated 2025).
